Data published in patent US20240352438A1, “MEANS AND METHODS FOR DETOXIFYING OCHRATOXIN A” (DSM Austria GmbH, priority 2021, published 2024).
Positions count from the first letter of the chain named.

B1: 217 (protein)
chain: MTTRTRILTAFLSLLAANACAADAAPAAPHTVVLRAARMFDGASGKLVDHPQLTIVGNKIVRIAQGDKAEVPAGAEVVDLGDATLLPGFIDAHVHLSGQSSDNWYGDFFDNMMRFPAEQALYGAYYARIELEAGFTSVRDVGSTDWVALGLRNAIDAGKVPGPRMLVSNYAVGSTGGHADQDPIPPHKLPLAGPLQGVCNGPEECRAAVRYQIKYGANVIKFMPSGGVLSLSDPVDAPELSQDEMNAVIGESHAWGRKVAAHAHGDKAAKMAVAAGVDSIEHGSFIEDDTLRAMKAKNVYLVPTISAIAHVEEKIGTFPPVIAEKGRAAAAHLRQTFRHAVQIGVPIALGTDAGVGAHGSNAREFRYMVENGLTPAQALLAGTANAARLLGTFDRVGTLEAGKLADVVAVPGNPIADITVTERPLFVMKDGVVVRRDAVR
modifications: exemplary polypeptide
B2: 256 (protein)
chain: B1 chain with E130T, H187N, K188R
modifications: exemplary polypeptide
B3: 230 (protein)
chain: B1 chain with E130T, S230T
modifications: exemplary polypeptide
B4: 248 (protein)
chain: B1 chain with E130T, A353S
modifications: exemplary polypeptide
B5: 241 (protein)
chain: B1 chain with E130T, H332E
modifications: exemplary polypeptide
B6: 237 (protein)
chain: B1 chain with E130T, S284H
modifications: exemplary polypeptide
B7: 240 (protein)
chain: B1 chain with E130T, H310E
modifications: exemplary polypeptide
B8: 235 (protein)
chain: B1 chain with E130T, H253N
modifications: exemplary polypeptide
B9: 244 (protein)
chain: B1 chain with E130T, H339E
modifications: exemplary polypeptide
B10: 239 (protein)
chain: B1 chain with E130T, H310D
modifications: exemplary polypeptide
B11: 227 (protein)
chain: B1 chain with E130T, G226S
modifications: exemplary polypeptide
B12: 243 (protein)
chain: B1 chain with E130T, H332S
modifications: exemplary polypeptide
B13: 225 (protein)
chain: B1 chain with E130T, G226A
modifications: exemplary polypeptide
B14: 242 (protein)
chain: B1 chain with E130T, H332R
modifications: exemplary polypeptide
B15: 234 (protein)
chain: B1 chain with E130T, H253A
modifications: exemplary polypeptide
B16: 247 (protein)
chain: B1 chain with E130T, H339S
modifications: exemplary polypeptide
B17: 219 (protein)
chain: B1 chain with E130T, H187E
modifications: exemplary polypeptide
B18: 220 (protein)
chain: B1 chain with E130T, H187G
modifications: exemplary polypeptide
B19: 253 (protein)
chain: B1 chain with E130T, N361Q
modifications: exemplary polypeptide
B20: 245 (protein)
chain: B1 chain with E130T, H339K
modifications: exemplary polypeptide
B21: 218 (protein)
chain: B1 chain with E130T, H187D
modifications: exemplary polypeptide
B22: 231 (protein)
chain: B1 chain with E130T, D233N
modifications: exemplary polypeptide
B23: 246 (protein)
chain: B1 chain with E130T, H339N
modifications: exemplary polypeptide
B24: 238 (protein)
chain: B1 chain with E130T, S284T
modifications: exemplary polypeptide
B25: 224 (protein)
chain: B1 chain with E130T, K188R
modifications: exemplary polypeptide

Assay: OTA detoxification activity assay (specific activity, fluorescence reduction ex/em 390/450 nm)
Assay type: biochemical
Conditions: pH 6.0; SEQ ID NO: 1 = 100%
Procedure, shortened: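 Recombinant enzyme preparation with 200 ng/mL OTA in 100 mM sodium phosphate, at pH 6.0 and pH 7.5, 37° C. Degradation followed as the fall in fluorescence at ex/em 390/450 nm. Specific activity taken from the initial linear slope; one unit degrades 1 μmol OTA per min at a starting OTA of […].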
With B1 the “Specific OTA detoxification activities in % compared to the enzyme of SEQ ID NO: 1, pH 6.0” value was 153%.
For B2, the “Specific OTA detoxification activities in % compared to the enzyme of SEQ ID NO: 1, pH 6.0” value was 116%.
With B3 the “Specific OTA detoxification activities in % compared to the enzyme of SEQ ID NO: 1, pH 6.0” value was 141%.
In the case of B4, the “Specific OTA detoxification activities in % compared to the enzyme of SEQ ID NO: 1, pH 6.0” value is reported as 131%.
With B5 the “Specific OTA detoxification activities in % compared to the enzyme of SEQ ID NO: 1, pH 6.0” value was 18%.
With B6 the “Specific OTA detoxification activities in % compared to the enzyme of SEQ ID NO: 1, pH 6.0” value was 49%.
For B7, the “Specific OTA detoxification activities in % compared to the enzyme of SEQ ID NO: 1, pH 6.0” value was 86%.
With B8 the “Specific OTA detoxification activities in % compared to the enzyme of SEQ ID NO: 1, pH 6.0” value was 56%.
For B9, the “Specific OTA detoxification activities in % compared to the enzyme of SEQ ID NO: 1, pH 6.0” value was 127%.
In the case of B10, the “Specific OTA detoxification activities in % compared to the enzyme of SEQ ID NO: 1, pH 6.0” value is reported as 73%.
For B11, the “Specific OTA detoxification activities in % compared to the enzyme of SEQ ID NO: 1, pH 6.0” value was 47%.
For B12, the “Specific OTA detoxification activities in % compared to the enzyme of SEQ ID NO: 1, pH 6.0” value was 37%.
With B13 the “Specific OTA detoxification activities in % compared to the enzyme of SEQ ID NO: 1, pH 6.0” value was 24%.
With B14 the “Specific OTA detoxification activities in % compared to the enzyme of SEQ ID NO: 1, pH 6.0” value was 41%.
With B15 the “Specific OTA detoxification activities in % compared to the enzyme of SEQ ID NO: 1, pH 6.0” value was 23%.
With B16 the “Specific OTA detoxification activities in % compared to the enzyme of SEQ ID NO: 1, pH 6.0” value was 80%.
For B17, the “Specific OTA detoxification activities in % compared to the enzyme of SEQ ID NO: 1, pH 6.0” value was 87%.
With B18 the “Specific OTA detoxification activities in % compared to the enzyme of SEQ ID NO: 1, pH 6.0” value was 85%.
For B19, the “Specific OTA detoxification activities in % compared to the enzyme of SEQ ID NO: 1, pH 6.0” value was 93%.
With B20 the “Specific OTA detoxification activities in % compared to the enzyme of SEQ ID NO: 1, pH 6.0” value was 62%.
For B21, the “Specific OTA detoxification activities in % compared to the enzyme of SEQ ID NO: 1, pH 6.0” value was 104%.
With B22 the “Specific OTA detoxification activities in % compared to the enzyme of SEQ ID NO: 1, pH 6.0” value was 20%.
For B23, the “Specific OTA detoxification activities in % compared to the enzyme of SEQ ID NO: 1, pH 6.0” value was 113%.
In the case of B24, the “Specific OTA detoxification activities in % compared to the enzyme of SEQ ID NO: 1, pH 6.0” value is reported as 151%.
In the case of B25, the “Specific OTA detoxification activities in % compared to the enzyme of SEQ ID NO: 1, pH 6.0” value is reported as 169%.

Same assay, conditions: pH 7.5; SEQ ID NO: 1 = 100%
With B1 the “Specific OTA detoxification activities in % compared to the enzyme of SEQ ID NO: 1, pH 7.5” value was 139%.
In the case of B2, the “Specific OTA detoxification activities in % compared to the enzyme of SEQ ID NO: 1, pH 7.5” value is reported as 101%.
With B3 the “Specific OTA detoxification activities in % compared to the enzyme of SEQ ID NO: 1, pH 7.5” value was 127%.
For B4, the “Specific OTA detoxification activities in % compared to the enzyme of SEQ ID NO: 1, pH 7.5” value was 91%.
For B5, the “Specific OTA detoxification activities in % compared to the enzyme of SEQ ID NO: 1, pH 7.5” value was 55%.
With B6 the “Specific OTA detoxification activities in % compared to the enzyme of SEQ ID NO: 1, pH 7.5” value was 26%.
With B7 the “Specific OTA detoxification activities in % compared to the enzyme of SEQ ID NO: 1, pH 7.5” value was 101%.
With B8 the “Specific OTA detoxification activities in % compared to the enzyme of SEQ ID NO: 1, pH 7.5” value was 38%.
For B9, the “Specific OTA detoxification activities in % compared to the enzyme of SEQ ID NO: 1, pH 7.5” value was 93%.
In the case of B10, the “Specific OTA detoxification activities in % compared to the enzyme of SEQ ID NO: 1, pH 7.5” value is reported as 76%.
With B11 the “Specific OTA detoxification activities in % compared to the enzyme of SEQ ID NO: 1, pH 7.5” value was 36%.
In the case of B12, the “Specific OTA detoxification activities in % compared to the enzyme of SEQ ID NO: 1, pH 7.5” value is reported as 77%.
With B13 the “Specific OTA detoxification activities in % compared to the enzyme of SEQ ID NO: 1, pH 7.5” value was 27%.
With B14 the “Specific OTA detoxification activities in % compared to the enzyme of SEQ ID NO: 1, pH 7.5” value was 54%.
For B15, the “Specific OTA detoxification activities in % compared to the enzyme of SEQ ID NO: 1, pH 7.5” value was 13%.
With B16 the “Specific OTA detoxification activities in % compared to the enzyme of SEQ ID NO: 1, pH 7.5” value was 100%.
For B17, the “Specific OTA detoxification activities in % compared to the enzyme of SEQ ID NO: 1, pH 7.5” value was 88%.
For B18, the “Specific OTA detoxification activities in % compared to the enzyme of SEQ ID NO: 1, pH 7.5” value was 83%.
For B19, the “Specific OTA detoxification activities in % compared to the enzyme of SEQ ID NO: 1, pH 7.5” value was 87%.
In the case of B20, the “Specific OTA detoxification activities in % compared to the enzyme of SEQ ID NO: 1, pH 7.5” value is reported as 59%.
With B21 the “Specific OTA detoxification activities in % compared to the enzyme of SEQ ID NO: 1, pH 7.5” value was 101%.
In the case of B22, the “Specific OTA detoxification activities in % compared to the enzyme of SEQ ID NO: 1, pH 7.5” value is reported as 22%.
For B23, the “Specific OTA detoxification activities in % compared to the enzyme of SEQ ID NO: 1, pH 7.5” value was 89%.
For B24, the “Specific OTA detoxification activities in % compared to the enzyme of SEQ ID NO: 1, pH 7.5” value was 97%.
With B25 the “Specific OTA detoxification activities in % compared to the enzyme of SEQ ID NO: 1, pH 7.5” value was 132%.

Assay: Enzymatic activity comparison: activity remaining after 65° C. for 10 min at pH 6.0, relative to SEQ ID NO: 1
Assay type: physicochemical
Conditions: not given
Experimental: To compare the temperature behavior and thermostability of selected enzymes to one another, enzyme was incubated at 65° C. for 10 min at pH 6.0. The enzymatic activity remaining after incubation was compared to the remaining activity of the enzyme of SEQ ID NO: 1 after incubation, the latter being set to 100%, see Table 16.
With B1 the “Enzymatic activity remaining after incubation, compared to SEQ ID NO: 1 (set to 100%)” value was 36%.
In the case of B2, the “Enzymatic activity remaining after incubation, compared to SEQ ID NO: 1 (set to 100%)” value is reported as 36%.
In the case of B3, the “Enzymatic activity remaining after incubation, compared to SEQ ID NO: 1 (set to 100%)” value is reported as 32%.
For B4, the “Enzymatic activity remaining after incubation, compared to SEQ ID NO: 1 (set to 100%)” value was 38%.
For B5, the “Enzymatic activity remaining after incubation, compared to SEQ ID NO: 1 (set to 100%)” value was 73%.
For B6, the “Enzymatic activity remaining after incubation, compared to SEQ ID NO: 1 (set to 100%)” value was 14%.
For B7, the “Enzymatic activity remaining after incubation, compared to SEQ ID NO: 1 (set to 100%)” value was 44%.
With B8 the “Enzymatic activity remaining after incubation, compared to SEQ ID NO: 1 (set to 100%)” value was 56%.
For B9, the “Enzymatic activity remaining after incubation, compared to SEQ ID NO: 1 (set to 100%)” value was 33%.
In the case of B10, the “Enzymatic activity remaining after incubation, compared to SEQ ID NO: 1 (set to 100%)” value is reported as 30%.
With B11 the “Enzymatic activity remaining after incubation, compared to SEQ ID NO: 1 (set to 100%)” value was 24%.
In the case of B12, the “Enzymatic activity remaining after incubation, compared to SEQ ID NO: 1 (set to 100%)” value is reported as 41%.
With B13 the “Enzymatic activity remaining after incubation, compared to SEQ ID NO: 1 (set to 100%)” value was 84%.
For B14, the “Enzymatic activity remaining after incubation, compared to SEQ ID NO: 1 (set to 100%)” value was 11%.
In the case of B15, the “Enzymatic activity remaining after incubation, compared to SEQ ID NO: 1 (set to 100%)” value is reported as 50%.
In the case of B16, the “Enzymatic activity remaining after incubation, compared to SEQ ID NO: 1 (set to 100%)” value is reported as 53%.
In the case of B17, the “Enzymatic activity remaining after incubation, compared to SEQ ID NO: 1 (set to 100%)” value is reported as 38%.
For B18, the “Enzymatic activity remaining after incubation, compared to SEQ ID NO: 1 (set to 100%)” value was 22%.
In the case of B19, the “Enzymatic activity remaining after incubation, compared to SEQ ID NO: 1 (set to 100%)” value is reported as 22%.
With B20 the “Enzymatic activity remaining after incubation, compared to SEQ ID NO: 1 (set to 100%)” value was 37%.
With B21 the “Enzymatic activity remaining after incubation, compared to SEQ ID NO: 1 (set to 100%)” value was 28%.
With B22 the “Enzymatic activity remaining after incubation, compared to SEQ ID NO: 1 (set to 100%)” value was 75%.
With B23 the “Enzymatic activity remaining after incubation, compared to SEQ ID NO: 1 (set to 100%)” value was 27%.
For B24, the “Enzymatic activity remaining after incubation, compared to SEQ ID NO: 1 (set to 100%)” value was 24%.
In the case of B25, the “Enzymatic activity remaining after incubation, compared to SEQ ID NO: 1 (set to 100%)” value is reported as 40%.
